According to PMC7077502:

Biological target: His6-eIF4A1 (UniProt P60843 1-406)
Test: fluorescence polarization

Chain of His6-eIF4A1 (P60843 whole entry): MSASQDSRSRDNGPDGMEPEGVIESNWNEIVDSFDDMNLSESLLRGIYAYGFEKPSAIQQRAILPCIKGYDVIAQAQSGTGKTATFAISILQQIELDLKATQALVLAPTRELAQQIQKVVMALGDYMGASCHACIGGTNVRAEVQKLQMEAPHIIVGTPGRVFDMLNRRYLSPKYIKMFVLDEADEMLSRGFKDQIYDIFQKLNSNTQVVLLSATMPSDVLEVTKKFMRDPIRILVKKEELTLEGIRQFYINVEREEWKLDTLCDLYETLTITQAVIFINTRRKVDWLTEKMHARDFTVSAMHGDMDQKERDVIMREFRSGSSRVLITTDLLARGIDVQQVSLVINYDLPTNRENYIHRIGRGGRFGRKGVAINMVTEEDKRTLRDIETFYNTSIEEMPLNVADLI

Does AGAGAGAGAGAGAGAG (ssRNA) [r(AG)8] bind?
Result: binds
